Patent US20210403576A1 (HELIXMITH, published 2021)

B1: VH4/Vk2 (antibody, IgG1, V domains shown)
VH: QVQLVQSGAEVKKPGSSVKVSCQGSGYSFPTHWITWVRQAPGQGLEWMGTIDPTDSYNFYGPSFQGRVTITADSSTSTAYMELSSLRSEDTAMYYCARDGNYYDSRGYYYDTFDMWGQGTLVTVSS
VL: DIQMTQSPSSLSASVGDRVTITCRASQGISTYLAWYQQKPGKAPKLLIYSASTLESGVPSRFSGSGSGTDFTLTISSLQPEDFATYYCQQADSFPLTFGGGTKVEIK
notes: Full IgG1/kappa expressed in HEK 293 EBNA cells
B2: VH5/Vk4 (antibody, IgG1, V domains shown)
VH: QVQLVQSGAEVKKPGSSVKVSCQGSGYSFPTHWITWVRQAPGQGLEWMGTIDPTDSYNFYGPSFQGRVTITADSSTSTAYMELSSLRSEDTAVYYCARDGNYYDSRGYYYDTFDMWGQGTLVTVSS
VL: EIQMTQSPGTLSLSPGERATLSCRASQGISTYLAWYQQKPGQAPRLLIYSASTLESGVPDRFSGSGSGTDFTLTISRLEPEDFATYYCQQADSFPLTFGGGTKVEIK
notes: as for B1
B3: VH6/Vk4 (antibody, IgG1, V domains shown)
VH: QVQLVQSGAEVKKPGSSVKVSCKASGYSFPTHWITWVRQAPGQGLEWMGTIDPTDSYNFYGPSFQGRVTITADKSTSTAYMELSSLRSEDTAVYYCARDGNYYDSRGYYYDTFDMWGQGTLVTVSS
VL: EIQMTQSPGTLSLSPGERATLSCRASQGISTYLAWYQQKPGQAPRLLIYSASTLESGVPDRFSGSGSGTDFTLTISRLEPEDFATYYCQQADSFPLTFGGGTKVEIK
notes: as for B1
B4: VH5/Vk5 (antibody, IgG1, V domains shown)
VH: QVQLVQSGAEVKKPGSSVKVSCQGSGYSFPTHWITWVRQAPGQGLEWMGTIDPTDSYNFYGPSFQGRVTITADSSTSTAYMELSSLRSEDTAVYYCARDGNYYDSRGYYYDTFDMWGQGTLVTVSS
VL: EIVLTQSPGTLSLSPGERATLSCRASQGISTYLAWYQQKPGQAPRLLIYSASTLESGIPDRFSGSGSGTDFTLTISRLEPEDFATYYCQQADSFPLTFGGGTKVEIK
notes: as for B1
B5: VH6/Vk5 (antibody, IgG1, V domains shown)
VH: QVQLVQSGAEVKKPGSSVKVSCKASGYSFPTHWITWVRQAPGQGLEWMGTIDPTDSYNFYGPSFQGRVTITADKSTSTAYMELSSLRSEDTAVYYCARDGNYYDSRGYYYDTFDMWGQGTLVTVSS
VL: EIVLTQSPGTLSLSPGERATLSCRASQGISTYLAWYQQKPGQAPRLLIYSASTLESGIPDRFSGSGSGTDFTLTISRLEPEDFATYYCQQADSFPLTFGGGTKVEIK
notes: as for B1
B6: VH6/Vk3 (antibody, IgG1, V domains shown)
VH: QVQLVQSGAEVKKPGSSVKVSCKASGYSFPTHWITWVRQAPGQGLEWMGTIDPTDSYNFYGPSFQGRVTITADKSTSTAYMELSSLRSEDTAVYYCARDGNYYDSRGYYYDTFDMWGQGTLVTVSS
VL: DIQMTQSPGFLSLSPGERATLSCRASQGISTYLAWYQQKPGQAPRLLIYSASTLESGVPDRFSGSGSGTDFTLTISRLEPEDFATYYCQQADSFPLTFGGGTKVEIK
notes: as for B1
B7: VH5/Vk3 (antibody, IgG1, V domains shown)
VH: QVQLVQSGAEVKKPGSSVKVSCQGSGYSFPTHWITWVRQAPGQGLEWMGTIDPTDSYNFYGPSFQGRVTITADSSTSTAYMELSSLRSEDTAVYYCARDGNYYDSRGYYYDTFDMWGQGTLVTVSS
VL: DIQMTQSPGFLSLSPGERATLSCRASQGISTYLAWYQQKPGQAPRLLIYSASTLESGVPDRFSGSGSGTDFTLTISRLEPEDFATYYCQQADSFPLTFGGGTKVEIK
notes: as for B1
B8: VH4/Vk4 (antibody, IgG1, V domains shown)
VH: QVQLVQSGAEVKKPGSSVKVSCQGSGYSFPTHWITWVRQAPGQGLEWMGTIDPTDSYNFYGPSFQGRVTITADSSTSTAYMELSSLRSEDTAMYYCARDGNYYDSRGYYYDTFDMWGQGTLVTVSS
VL: EIQMTQSPGTLSLSPGERATLSCRASQGISTYLAWYQQKPGQAPRLLIYSASTLESGVPDRFSGSGSGTDFTLTISRLEPEDFATYYCQQADSFPLTFGGGTKVEIK
notes: as for B1
B9: VH4/Vk3 (antibody, IgG1, V domains shown)
VH: QVQLVQSGAEVKKPGSSVKVSCQGSGYSFPTHWITWVRQAPGQGLEWMGTIDPTDSYNFYGPSFQGRVTITADSSTSTAYMELSSLRSEDTAMYYCARDGNYYDSRGYYYDTFDMWGQGTLVTVSS
VL: DIQMTQSPGFLSLSPGERATLSCRASQGISTYLAWYQQKPGQAPRLLIYSASTLESGVPDRFSGSGSGTDFTLTISRLEPEDFATYYCQQADSFPLTFGGGTKVEIK
notes: as for B1
B10: VH3/Vk2 (antibody, IgG1, V domains shown)
VH: QVQLVQSGAEVKKPGSSVKVSCQGSGYSFPTHWITWVRQAPGQGLEWMGTIDPTDSYNFYGPSFQGRVTITADSSTSTAYLQWSSLKASDTAMYYCARDGNYYDSRGYYYDTFDMWGQGTLVTVSS
VL: DIQMTQSPSSLSASVGDRVTITCRASQGISTYLAWYQQKPGKAPKLLIYSASTLESGVPSRFSGSGSGTDFTLTISSLQPEDFATYYCQQADSFPLTFGGGTKVEIK
notes: as for B1
B11: VH4/Vk0 (antibody, IgG1, V domains shown)
VH: QVQLVQSGAEVKKPGSSVKVSCQGSGYSFPTHWITWVRQAPGQGLEWMGTIDPTDSYNFYGPSFQGRVTITADSSTSTAYMELSSLRSEDTAMYYCARDGNYYDSRGYYYDTFDMWGQGTLVTVSS
VL: DIQMTQSPSFLSASVGDRVTITCRASQGISTYLAWYQQKPGTAPKLLIYSASTLESGVPSRFSGSGSGTDFTLTISSLQPEDSATYYCQQADSFPLTFGGGTKVEIK
notes: as for B1
B12: VH5/Vk0 (antibody, IgG1, V domains shown)
VH: QVQLVQSGAEVKKPGSSVKVSCQGSGYSFPTHWITWVRQAPGQGLEWMGTIDPTDSYNFYGPSFQGRVTITADSSTSTAYMELSSLRSEDTAVYYCARDGNYYDSRGYYYDTFDMWGQGTLVTVSS
VL: DIQMTQSPSFLSASVGDRVTITCRASQGISTYLAWYQQKPGTAPKLLIYSASTLESGVPSRFSGSGSGTDFTLTISSLQPEDSATYYCQQADSFPLTFGGGTKVEIK
notes: as for B1
B13: VH2/Vk5 (antibody, IgG1, V domains shown)
VH: EVQLVQSGAEVKKPGESLKISCKGSGYSFPTHWITWVRQMPGKGLEWMGTIDPTDSYNFYGPSFQGQVTISADKSISTAYLQWSSLKASDTAMYYCARDGNYYDSRGYYYDTFDMWGQGTLVTVSS
VL: EIVLTQSPGTLSLSPGERATLSCRASQGISTYLAWYQQKPGQAPRLLIYSASTLESGIPDRFSGSGSGTDFTLTISRLEPEDFATYYCQQADSFPLTFGGGTKVEIK
notes: as for B1

Assays:
[1] = biological target: T1, human c-Met (Sino Biological) (human, UniProt P08581 25-932, limits assumed); experiment: derived from the Biacore KD, normalised to VH0/Vk0
T1 construct: Analyte in the Biacore assay; also called antigen (c-Met); printed as "human c-Met antibody (Sino Biological, Beijing, China)"
T1 sequence (P08581 25-932 limits assumed): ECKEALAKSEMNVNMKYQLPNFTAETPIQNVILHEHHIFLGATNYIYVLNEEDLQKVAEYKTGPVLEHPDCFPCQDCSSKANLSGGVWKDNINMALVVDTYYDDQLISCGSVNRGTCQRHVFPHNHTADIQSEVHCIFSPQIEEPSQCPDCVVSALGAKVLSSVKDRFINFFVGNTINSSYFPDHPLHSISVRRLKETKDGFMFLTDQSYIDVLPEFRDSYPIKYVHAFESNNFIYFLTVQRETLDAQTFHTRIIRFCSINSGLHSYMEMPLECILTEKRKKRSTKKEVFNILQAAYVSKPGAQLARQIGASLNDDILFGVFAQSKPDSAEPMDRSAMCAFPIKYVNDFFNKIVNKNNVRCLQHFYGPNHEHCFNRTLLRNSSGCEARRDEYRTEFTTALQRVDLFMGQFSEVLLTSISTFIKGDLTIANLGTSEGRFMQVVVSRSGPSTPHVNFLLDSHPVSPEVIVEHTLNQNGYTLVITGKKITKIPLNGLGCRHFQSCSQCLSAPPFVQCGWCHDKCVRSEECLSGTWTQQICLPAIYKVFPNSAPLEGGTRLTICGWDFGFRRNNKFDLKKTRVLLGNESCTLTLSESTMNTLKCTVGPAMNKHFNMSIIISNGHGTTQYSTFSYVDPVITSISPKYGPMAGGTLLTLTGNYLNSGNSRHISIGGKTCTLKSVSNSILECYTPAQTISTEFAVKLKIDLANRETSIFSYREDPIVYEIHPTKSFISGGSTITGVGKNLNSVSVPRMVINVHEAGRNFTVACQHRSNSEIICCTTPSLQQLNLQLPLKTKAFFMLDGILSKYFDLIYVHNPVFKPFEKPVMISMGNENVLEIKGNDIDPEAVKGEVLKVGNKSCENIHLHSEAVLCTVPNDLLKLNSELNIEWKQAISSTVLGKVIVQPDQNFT
Protocol: (§1) The candidate antibodies selected in Example 4 were measured for binding affinity for the antigen (c-Met) with the aid of Biacore. […] The anti-c-Met antibodies to be analyzed were immobilized on Protein A CM5 chips (GE Healthcare, Little Chalfont, UK) through which human c-Met antibody (Sino Biological, Beijing, China) with various concentrations ranging 0.15 to 2 nM was allowed to pass, thereby acquiring sensorgrams. On the basis of the acquired sensorgrams, association constants kₒₙ and dissociation constants koff were measured to calculate Ko value, the ratio koff/kₒₙ.
(§2) In order to select a final candidate group from the 21 candidate antibodies selected in Example 4, comparison was made according to criteria specified into expression level, binding affinity for antigen, thermal stability, and biopotency. As a rule, the expression level is considered to be the most important index when time and cost are taken into consideration from a point of view of production. […] Thereafter, degrees of improvement in each of the remaining candidate antibodies compared to the reference antibody (VH0/Vk0) were digitized with regard to the selected indices. For normalization, analysis index measurements for individual candidate antibodies were divided by average values to give ratios (index 1) which were in turn divided by the measurement for the antibody VH0/Vk0 (index 2) (Tables 6 to 9). In addition, the measurements for the four indices were multiplied for comprehensive comparison of the four indices of the candidate antibodies. The final results (index 3) are listed in a descending order in Table 10.

[2] = biological target: T1, human c-Met (Sino Biological); experiment: SPR (Biacore T200), IgG captured on Protein A CM5 chip, c-Met 0.15-2 nM as analyte
Protocol: as §1

[3] = biological target: T1, human c-Met (Sino Biological); experiment: derived from the Biacore KD, printed 'Average' 3.52 x10^-10 M divided by the KD
Protocol: as §1, §2

[4] = biological target: c-Met protein receptors on HUVEC (human, UniProt P08581 25-1390); experiment: cell-based or functional assay
Chain of c-Met protein receptors on HUVEC (P08581 25-1390): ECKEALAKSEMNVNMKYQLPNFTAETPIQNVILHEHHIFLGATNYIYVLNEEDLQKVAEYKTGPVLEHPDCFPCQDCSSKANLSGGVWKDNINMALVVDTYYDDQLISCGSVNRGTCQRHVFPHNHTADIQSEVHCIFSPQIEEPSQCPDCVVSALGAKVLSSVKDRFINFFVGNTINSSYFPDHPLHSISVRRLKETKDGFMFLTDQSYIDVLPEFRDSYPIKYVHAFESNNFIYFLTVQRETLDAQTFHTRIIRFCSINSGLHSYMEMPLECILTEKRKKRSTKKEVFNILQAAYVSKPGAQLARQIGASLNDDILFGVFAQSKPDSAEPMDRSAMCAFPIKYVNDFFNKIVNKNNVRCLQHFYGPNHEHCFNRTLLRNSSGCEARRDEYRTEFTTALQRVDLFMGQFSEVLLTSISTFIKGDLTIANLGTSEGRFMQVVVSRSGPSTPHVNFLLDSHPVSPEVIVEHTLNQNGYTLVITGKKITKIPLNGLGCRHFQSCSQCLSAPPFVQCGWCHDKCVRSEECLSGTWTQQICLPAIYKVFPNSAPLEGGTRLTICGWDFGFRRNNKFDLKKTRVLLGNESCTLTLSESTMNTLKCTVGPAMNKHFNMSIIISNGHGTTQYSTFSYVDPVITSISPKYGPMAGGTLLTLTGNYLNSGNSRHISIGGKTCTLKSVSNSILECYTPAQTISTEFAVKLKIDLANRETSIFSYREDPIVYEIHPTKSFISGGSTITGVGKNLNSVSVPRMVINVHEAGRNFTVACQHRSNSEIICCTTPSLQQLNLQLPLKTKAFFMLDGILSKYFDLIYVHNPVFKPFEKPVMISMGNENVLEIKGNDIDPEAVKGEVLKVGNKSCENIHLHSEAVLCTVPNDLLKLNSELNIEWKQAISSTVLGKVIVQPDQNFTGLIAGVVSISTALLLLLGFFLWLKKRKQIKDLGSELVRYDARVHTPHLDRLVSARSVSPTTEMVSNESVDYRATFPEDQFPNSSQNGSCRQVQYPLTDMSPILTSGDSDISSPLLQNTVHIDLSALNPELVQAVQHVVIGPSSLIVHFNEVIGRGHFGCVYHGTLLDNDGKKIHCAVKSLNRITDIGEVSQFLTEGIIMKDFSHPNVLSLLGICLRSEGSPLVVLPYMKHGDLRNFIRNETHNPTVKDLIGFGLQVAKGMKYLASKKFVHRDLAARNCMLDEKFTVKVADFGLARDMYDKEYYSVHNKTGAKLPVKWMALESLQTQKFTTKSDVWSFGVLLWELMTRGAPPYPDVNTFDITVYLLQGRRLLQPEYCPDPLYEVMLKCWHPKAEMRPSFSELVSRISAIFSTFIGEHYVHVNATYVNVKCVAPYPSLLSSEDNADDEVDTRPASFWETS

Row | Binder | Index 2 (binding affinity, inverse KD relative to VH0/Vk0) [1] | Kd [2] | Relative KD to VMDO2 VH0/Vk0 [2] | Index 1 (binding affinity, inverse KD relative to the Average 3.52) [3] | Index 1 (Relative Migration divided by the Average 157.5), HUVEC migration assay [4] | Index 2 (Relative Migration relative to VH0/Vk0), HUVEC migration assay [4] | Relative Migration (%), HUVEC migration assay, 90 ng/ml [4]
1 | B1 | 1.23 | 0.423 nM | 0.81 | 0.832 | 1.13 | 1.19 | 177%
2 | B2 | – | 0.349 nM | 0.67 | – | – | – | –
3 | B3 | – | 0.391 nM | 0.75 | – | – | – | –
4 | B4 | – | 0.506 nM | 0.97 | – | – | – | –
5 | B5 | – | 0.557 nM | 1.07 | – | – | – | –
6 | B6 | – | 0.431 nM | 0.83 | – | – | – | –
7 | B7 | – | 0.402 nM | 0.77 | – | – | – | –
8 | B8 | – | 0.372 nM | 0.72 | – | – | – | –
9 | B9 | – | 0.422 nM | 0.81 | – | – | – | –
10 | B10 | 1.09 | 0.477 nM | 0.92 | 0.738 | 1.04 | 1.09 | 164%
11 | B11 | 1.32 | 0.395 nM | 0.76 | 0.891 | 0.773 | 0.812 | 122%
12 | B12 | 1.48 | 0.352 nM | 0.68 | 1 | 0.813 | 0.855 | 128%
13 | B13 | – | 0.685 nM | 1.32 | – | – | – | –
